Biological target: HIV-1 Matrix (MA) WT (HIV-1, UniProt C1JB69 1-131)
Assay: ITC

B1: tRNALys3 A7U/U66A (structured_RNA)
RNA: GCCCGGUUAGCUCAGUCGGUAGAGCAUCAGACUUUUAAUCUGAGGGUCCAGGGUUCAAGUCCCUGAUCGGGCGCCA
binding signal: 2 fold Kd increase vs WT tRNA

— article PMC8650744
